Paper PMC4673825, “Active site coupling in Plasmodium falciparum GMP synthetase is triggered by domain rotation” (Nature Communications, 2015)

Assays:
PfATPPase = target: T1, PfATPPase (Plasmodium falciparum, UniProt Q8IJR9); experiment: ammonia-dependent GMP formation, absorbance decrease at […] nm; conditions: NH4Cl-dependent, 20 mM MgCl2, pH 8.5, 25 °C
T1 construct: gene GMPS
T1 sequence (Q8IJR9 237-555): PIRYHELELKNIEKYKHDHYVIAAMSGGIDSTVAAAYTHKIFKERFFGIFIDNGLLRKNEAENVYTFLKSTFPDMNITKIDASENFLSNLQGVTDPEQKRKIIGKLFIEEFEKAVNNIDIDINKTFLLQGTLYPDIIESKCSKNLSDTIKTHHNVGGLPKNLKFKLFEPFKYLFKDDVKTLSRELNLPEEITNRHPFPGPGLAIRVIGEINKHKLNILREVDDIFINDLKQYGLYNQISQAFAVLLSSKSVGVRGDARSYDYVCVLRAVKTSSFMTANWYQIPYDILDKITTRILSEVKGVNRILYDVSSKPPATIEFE

N = experiment: purified protein; conditions: 2 mM ATP, 150 μM XMP, 20 mM MgCl2, pH 8.5, 25 °C
[1] = tested on: O=c1[nH]c(=O)c2ncn([C@@H]3O[C@H](COP(=O)(O)O)[C@@H](O)[C@H]3O)c2[nH]1; experiment: purified protein; type: biochemical, Plasmodium falciparum; conditions: 2 mM ATP, 5 mM Gln, 20 mM MgCl2, pH 8.5, 25 °C, Gln-dependent
purified protein [2] = substrate: N; experiment: purified protein; conditions: 20 mM MgCl2, pH 8.5, 25 °C
purified protein [3] = substrate: O=c1[nH]c(=O)c2ncn([C@@H]3O[C@H](COP(=O)(O)O)[C@@H](O)[C@H]3O)c2[nH]1; experiment: purified protein; conditions: NH4Cl-dependent, 20 mM MgCl2, pH 8.5, 25 °C
[4] = target: the molecule itself; experiment: SEC; analytical gel filtration, Superdex 200 HR 10/30, 50 mM Tris-HCl pH 7.4, 100 mM KCl; 100 μl of 20 μM protein, each injected individually
[5] = target: the molecule itself; experiment: SAXS; in solution, 1.1-11 mg/ml in 20 mM Tris pH 7.4, 50 mM NaCl; data at 11 mg/ml analysed; ab initio envelope superimposed on the dimer crystal structure
SAXS = target: the molecule itself; experiment: SAXS

Nc1ncnc2c1ncn2[C@@H]1O[C@H](COP(=O)(O)OP(=O)(O)OP(=O)(O)O)[C@@H](O)[C@H]1O [ATP]
Km (PfATPPase): 56 ± 16 µM

PfGMPS (Plasmodium falciparum 3D7)
Km (N): 19000 ± 1000 µM | kcat (N): 0.917 s⁻¹ | kcat/Km (N): 48.3 M⁻¹ s⁻¹ | Km [1]: 10 ± 2 µM | kcat [1]: 0.733 ± 0.0167 s⁻¹ | kcat/Km [1]: 73300 M⁻¹ s⁻¹

B1: PfATPPase (isolated ATP pyrophosphatase domain of PfGMPS) (domain or fragment, Plasmodium falciparum, UniProt Q8IJR9 237-555, looked up)
chain: PIRYHELELKNIEKYKHDHYVIAAMSGGIDSTVAAAYTHKIFKERFFGIFIDNGLLRKNEAENVYTFLKSTFPDMNITKIDASENFLSNLQGVTDPEQKRKIIGKLFIEEFEKAVNNIDIDINKTFLLQGTLYPDIIESKCSKNLSDTIKTHHNVGGLPKNLKFKLFEPFKYLFKDDVKTLSRELNLPEEITNRHPFPGPGLAIRVIGEINKHKLNILREVDDIFINDLKQYGLYNQISQAFAVLLSSKSVGVRGDARSYDYVCVLRAVKTSSFMTANWYQIPYDILDKITTRILSEVKGVNRILYDVSSKPPATIEFE
notes: ATPPase domain of Plasmodium falciparum GMP synthetase, residues 237-555; Cloned into pET-21b(+); also called ATPPase domain; source: E. coli BL21(DE3) (pETPfATPPase), purified (60% ammonium sulfate precipitation, CM-Sepharose cation exchange)
Km (purified protein [2]): 7000 ± 300 µM | kcat (purified protein [2]): 0.155 ± 0.0017 s⁻¹ | Km (purified protein [3]): 11 ± 4 µM | stoichiometry N [4]: 2

B2: Plasmodium falciparum GMP synthetase (PfGMPS), wild type (enzyme, UniProt Q8IJR9 1-555, looked up)
chain: MEGEEYDKILVLNFGSQYFHLIVKRLNNIKIFSETKDYGVELKDIKDMNIKGVILSGGPYSVTEAGSPHLKKEVFEYFLEKKIPIFGICYGMQEIAVQMNGEVKKSKTSEYGCTDVNILRNDNINNITYCRNFGDSSSAMDLYSNYKLMNETCCLFENIKSDITTVWMNHNDEVTKIPENFYLVSSSENCLICSIYNKEYNIYGVQYHPEVYESLDGELMFYNFAYNICKCKKQFDPIRYHELELKNIEKYKHDHYVIAAMSGGIDSTVAAAYTHKIFKERFFGIFIDNGLLRKNEAENVYTFLKSTFPDMNITKIDASENFLSNLQGVTDPEQKRKIIGKLFIEEFEKAVNNIDIDINKTFLLQGTLYPDIIESKCSKNLSDTIKTHHNVGGLPKNLKFKLFEPFKYLFKDDVKTLSRELNLPEEITNRHPFPGPGLAIRVIGEINKHKLNILREVDDIFINDLKQYGLYNQISQAFAVLLSSKSVGVRGDARSYDYVCVLRAVKTSSFMTANWYQIPYDILDKITTRILSEVKGVNRILYDVSSKPPATIEFE
notes: GMP synthetase of Plasmodium falciparum, EC 6.3.5.2, full-length enzyme of 555 residues: GATase domain 1-236 and ATPPase domain 237-555; also called guanosine 5'-monophosphate synthetase; ligand-free PfGMPS; source: E. coli AT2465 (pQE30PfGMPS), purified (HisTrap, Superdex 200 size exclusion)
stoichiometry N [5]: 2

B3: PfGMPS_C89A (glutamine-bound inactive mutant of P. falciparum GMP synthetase) (enzyme)
chain: MEGEEYDKILVLNFGSQYFHLIVKRLNNIKIFSETKDYGVELKDIKDMNIKGVILSGGPYSVTEAGSPHLKKEVFEYFLEKKIPIFGIAYGMQEIAVQMNGEVKKSKTSEYGCTDVNILRNDNINNITYCRNFGDSSSAMDLYSNYKLMNETCCLFENIKSDITTVWMNHNDEVTKIPENFYLVSSSENCLICSIYNKEYNIYGVQYHPEVYESLDGELMFYNFAYNICKCKKQFDPIRYHELELKNIEKYKHDHYVIAAMSGGIDSTVAAAYTHKIFKERFFGIFIDNGLLRKNEAENVYTFLKSTFPDMNITKIDASENFLSNLQGVTDPEQKRKIIGKLFIEEFEKAVNNIDIDINKTFLLQGTLYPDIIESKCSKNLSDTIKTHHNVGGLPKNLKFKLFEPFKYLFKDDVKTLSRELNLPEEITNRHPFPGPGLAIRVIGEINKHKLNILREVDDIFINDLKQYGLYNQISQAFAVLLSSKSVGVRGDARSYDYVCVLRAVKTSSFMTANWYQIPYDILDKITTRILSEVKGVNRILYDVSSKPPATIEFE
stoichiometry N (SAXS): 2
